Experimental data from the Immune Epitope Database (IEDB).
Blank lines part the entries; values can stand above or below the sequence they belong to.

How the values were obtained:
[1] = molecular target: HLA-A*24:03; assay: IEDB peptide-MHC binding, purified MHC/competitive/fluorescence; filed as Kd, often an IC50 or EC50 that approximates it; ≥ and ≤ were set here for values at or beyond the usual limits of such assays
[2] = molecular target: HLA-B*27:03; assay: as above
[3] = molecular target: HLA-A*29:02; assay: as above; details: source organism: Salmonella enterica subsp. enterica serovar Paratyphi A str. AKU_12601
[4] = molecular target: HLA-B*15:01; assay: as above
[5] = molecular target: HLA-A*02:11; assay: as above
[6] = molecular target: HLA-B*57:01; assay: as above
[7] = molecular target: HLA-B*18:01; assay: as above
[8] = molecular target: HLA-A*02:03; assay: as above
[9] = molecular target: HLA-B*15:17; assay: as above; details: source organism: Salmonella enterica subsp. enterica serovar Paratyphi A str. AKU_12601
[10] = molecular target: HLA-A*26:01; assay: as above
[11] = molecular target: HLA-B*51:01; assay: as above
[12] = molecular target: HLA-A*03:01; assay: as above
[13] = molecular target: HLA-B*39:01; assay: as above
[14] = molecular target: HLA-B*46:01; assay: as above
[15] = molecular target: HLA-A*02:19; assay: as above
[16] = molecular target: HLA-A*02:12; assay: as above
[17] = molecular target: HLA-A*02:01; assay: as above
[18] = molecular target: HLA-B*15:02; assay: as above
[19] = molecular target: HLA-A*02:06; assay: as above
[20] = molecular target: HLA-A*02:16; assay: as above
[21] = molecular target: HLA-A*11:01; assay: IEDB peptide-MHC binding, purified MHC/direct/fluorescence; filed as Kd, often an IC50 or EC50 that approximates it; ≥ and ≤ were set here for values at or beyond the usual limits of such assays
[22] = molecular target: HLA-A*31:01; assay: IEDB peptide-MHC binding, purified MHC/competitive/fluorescence; filed as Kd, often an IC50 or EC50 that approximates it; ≥ and ≤ were set here for values at or beyond the usual limits of such assays
[23] = molecular target: HLA-A*69:01; assay: as above; details: source organism: Human immunodeficiency virus type 1 (ELI ISOLATE)
[24] = molecular target: HLA-B*07:02; assay: as above; details: source organism: Mycobacterium tuberculosis variant bovis BCG str. Pasteur 1173P2
[25] = molecular target: HLA-A*69:01; assay: IEDB peptide-MHC binding, purified MHC/direct/fluorescence; filed as Kd, often an IC50 or EC50 that approximates it; ≥ and ≤ were set here for values at or beyond the usual limits of such assays; details: source organism: Escherichia coli O157:H7 str. EC869
[26] = molecular target: HLA-B*27:03; assay: as above; details: source organism: Escherichia coli O157:H7 str. EC869
[27] = molecular target: HLA-A*02:16; assay: as above; details: source organism: Escherichia coli O157:H7 str. EC869
[28] = molecular target: HLA-B*15:01; assay: as above; details: source organism: Escherichia coli O157:H7 str. EC869
[29] = molecular target: HLA-A*02:11; assay: as above; details: source organism: Escherichia coli O157:H7 str. EC869
[30] = molecular target: HLA-B*57:01; assay: as above; details: source organism: Escherichia coli O157:H7 str. EC869
[31] = molecular target: HLA-B*35:01; assay: as above; details: source organism: Escherichia coli O157:H7 str. EC869
[32] = molecular target: HLA-A*02:03; assay: as above; details: source organism: Escherichia coli O157:H7 str. EC869
[33] = molecular target: HLA-A*26:01; assay: as above; details: source organism: Escherichia coli O157:H7 str. EC869
[34] = molecular target: HLA-B*51:01; assay: as above; details: source organism: Escherichia coli O157:H7 str. EC869
[35] = molecular target: HLA-A*03:01; assay: as above; details: source organism: Escherichia coli O157:H7 str. EC869
[36] = molecular target: HLA-B*39:01; assay: as above; details: source organism: Escherichia coli O157:H7 str. EC869
[37] = molecular target: HLA-A*68:02; assay: as above; details: source organism: Escherichia coli O157:H7 str. EC869
[38] = molecular target: HLA-B*46:01; assay: as above; details: source organism: Escherichia coli O157:H7 str. EC869
[39] = molecular target: HLA-B*07:02; assay: as above; details: source organism: Escherichia coli O157:H7 str. EC869
[40] = molecular target: HLA-A*02:19; assay: as above; details: source organism: Escherichia coli O157:H7 str. EC869
[41] = molecular target: HLA-A*02:12; assay: as above; details: source organism: Escherichia coli O157:H7 str. EC869
[42] = molecular target: HLA-A*02:01; assay: as above; details: source organism: Escherichia coli O157:H7 str. EC869
[43] = source organism: Salmonella enterica subsp. enterica serovar Paratyphi A str. AKU_12601
[44] = source organism: Escherichia coli ATCC 8739
[45] = source organism: Vibrio cholerae 2740-80
[46] = source organism: Giardia lamblia ATCC 50803
[47] = source organism: Human immunodeficiency virus type 1 (ELI ISOLATE)
[48] = source organism: Mycobacterium tuberculosis variant bovis BCG str. Pasteur 1173P2

Sequence: AMDTHLYFE
- Kd [1, 43]: ≥ 20 µM
- Kd [2, 43]: ≥ 20 µM
- Kd [3]: ≥ 20 µM
- Kd [4, 43]: ≥ 20 µM
- Kd [5, 43]: 0.0539 µM
- Kd [6, 43]: ≥ 20 µM
- Kd [7, 43]: ≥ 20 µM
- Kd [8, 43]: ≥ 20 µM
- Kd [9]: ≥ 20 µM
- Kd [10, 43]: ≥ 20 µM
- Kd [11, 43]: ≥ 20 µM
- Kd [12, 43]: ≥ 20 µM
- Kd [13, 43]: ≥ 20 µM
- Kd [14, 43]: ≥ 20 µM
- Kd [15, 43]: ≥ 20 µM
- Kd [16, 43]: 0.284 µM
- Kd [17, 43]: ≥ 20 µM

Sequence: FILSGRFSY
- Kd ([18]; source organism: Shigella flexneri): 0.396 µM

- Kd [19, 44]: 1.55 µM
- Kd [17, 44]: 0.119 µM
Sequence: GLLDWGMQQ

Sequence: GLYQGIVGF
- Kd ([18]; source organism: Rickettsia prowazekii str. Madrid E): 0.0596 µM

Sequence: HMLVVIRKY
- Kd ([18]; source organism: Clostridium botulinum A str. ATCC 3502): 0.194 µM

Sequence: IFIRTIYYH
- Kd [1, 45]: ≥ 20 µM
- Kd [2, 45]: ≥ 20 µM
- Kd [20, 45]: ≥ 20 µM
- Kd [4, 45]: ≥ 20 µM
- Kd [5, 45]: ≥ 20 µM
- Kd [6, 45]: ≥ 20 µM
- Kd [7, 45]: ≥ 20 µM
- Kd [8, 45]: ≥ 20 µM
- Kd [10, 45]: ≥ 20 µM
- Kd [11, 45]: ≥ 20 µM
- Kd [12, 45]: ≥ 20 µM
- Kd [13, 45]: ≥ 20 µM
- Kd [14, 45]: ≥ 20 µM
- Kd [15, 45]: ≥ 20 µM
- Kd [16, 45]: ≥ 20 µM
- Kd [17, 45]: ≥ 20 µM

Sequence: ILRDGQRWY
- Kd ([18]; source organism: Yersinia pestis CO92): 0.0552 µM

Sequence: LTYRHKVVK
- Kd ([21]; source organism: West Nile virus): 0.0298 µM
- Kd ([22]; source organism: Japanese encephalitis virus): 0.0239 µM

Sequence: MARPADASM
- Kd [1, 46]: ≥ 20 µM
- Kd [2, 46]: ≥ 20 µM
- Kd [20, 46]: ≥ 20 µM
- Kd [5, 46]: ≥ 20 µM
- Kd [6, 46]: 0.121 µM
- Kd [7, 46]: ≥ 20 µM
- Kd [8, 46]: ≥ 20 µM
- Kd [10, 46]: ≥ 20 µM
- Kd [12, 46]: ≥ 20 µM
- Kd [13, 46]: ≥ 20 µM
- Kd [14, 46]: 2.2 µM
- Kd [15, 46]: ≥ 20 µM
- Kd [16, 46]: ≥ 20 µM
- Kd [17, 46]: ≥ 20 µM

Sequence: QLLDFLLAY
- Kd ([18]; source organism: Shigella dysenteriae Sd197): 0.0558 µM

Sequence: SLGQHIYET
- Kd [23]: ≥ 20 µM
- Kd [20, 47]: 0.006 µM
- Kd [8, 47]: 0.0065 µM
- Kd [19, 47]: 0.011 µM
- Kd [15, 47]: 0.084 µM
- Kd [16, 47]: 0.0225 µM
- Kd [17, 47]: 0.012 µM

Sequence: SLYEKSGSV
- Kd [5, 48]: 0.0011 µM
- Kd [8, 48]: ≤ 0.001 µM
- Kd [24]: ≥ 20 µM
- Kd [15, 48]: 0.13 µM
- Kd [16, 48]: 0.0341 µM

Sequence: SYYCAGLKK
- Kd ([21]; source organism: Dengue virus 1 Singapore/S275/1990): 0.0801 µM
- Kd ([22]; source organism: dengue virus type 1): 1.96 µM

- Kd [25]: ≥ 20 µM
- Kd [26]: ≥ 20 µM
- Kd [27]: ≥ 20 µM
- Kd [28]: 0.18 µM
- Kd [29]: ≥ 20 µM
- Kd [30]: ≥ 20 µM
- Kd [31]: 0.006 µM
- Kd [32]: ≥ 20 µM
- Kd [33]: ≥ 20 µM
- Kd [34]: ≥ 20 µM
- Kd [35]: ≥ 20 µM
- Kd [36]: ≥ 20 µM
- Kd [37]: ≥ 20 µM
- Kd [38]: ≥ 20 µM
- Kd [39]: ≥ 20 µM
- Kd [40]: ≥ 20 µM
- Kd [41]: ≥ 20 µM
- Kd [42]: ≥ 20 µM
Sequence: YGSWFGLIY
